Data published in the PETadex activity labels (doi:10.1021/acscatal.2c02275).

B1: unnamed (protein)
chain: MANPYERGPDPTESSIEAVRGPFAVAQTTVSRLQADGFGGGTIYYPTDTSQGTFGAVAISPGFTAGQESIAWLGPRIASQGFVVITIDTITRLDQPDSRGRQLQAALDHLRTNSVVRNRIDPNRMAVMGHSMGGGGALSAAANNTSLEAAIPLQGWHTRKNWSSVRTPTLVVGAQLDTIAPVSSHSEAFYNSLPSDLDKAYMELRGASHMVSNTPDTTTAKYSIAWLKRFVDDDLRYEQFLCPAPDDFAISEYRSTCPF
B2: unnamed (protein)
chain: MANPYERGPDPTESSIEAVRGPFAVAQTTVSRLQADGFGGGTIYYPTDTSQGTFGAVAISPGFTAGQESIAWLGPRIASQGFVVITIDTITRLDQPDSRGRQLQAALDHLRTNSVVRNRIDPNRMAVMGHSMGGGGALSAAANNTSLEAAIPLQGWHTRKNWSSVRTPTLVVGAQLDTIAPVSSHSEAFYNSLPSDLDKAYMELRGASHPVSNTPDTTTAKYSIAWLKRFVDDDLRYEQFLCPAPDDFAISEYRSTCPF
B3: unnamed (protein)
chain: MANPYERGPDPTESSIEAVRGPFAVAQTTVSRLQADGFGGGTIYYPTDTSQGTFGAVAISPGFTAGQESIAWLGPRIASQGFVVITIDTITRLDQPDSRGRQLQAALDHLRTNSVVRNRIDPNRMAVMGHSMGGGGALSAAANNTSLEAAIPLQGWHTRKNWSSVRTPTLVVGAQLDTIAPVSSHSEAFYNSLPSDLDKAYMELRGASHHVSNTPDTTTAKYSIAWLKRFVDDDLRYEQFLCPAPDDFAISEYRSTCPF
B4: unnamed (protein)
chain: MANPYERGPDPTESSIEAVRGPFAVAQTTVSRLQADGFGGGTIYYPTDTSQGTFGAVAISPGFTAGQESIAWLGPRIASQGFVVITIDTITRLDQPDSRGRQLQAALDHLRTNSVVRNRIDPNRMAVMGHSMGGGGALSAAANNTSLEAAIPLQGWHTRKNWSSVRTPTLVVGAQLDTYAPVSSHSEAFYNSLPSDLDKAYMELRGASHLVSNTPDTTTAKYSIAWLKRFVDDDLRYEQFLCPAPDDFAISEYRSTCPF
B5: unnamed (protein)
chain: MANPYERGPDPTESSIEAVRGPFAVAQTTVSRLQADGFGGGTIYYPTDTSQGTFGAVAISPGFTAGQESIAWLGPRIASQGFVVITIDTITRLDQPDSRGRQLQAALDHLRTNSVVRNRIDPNRMAVMGHSMGGGGALSAAANNTSLEAAIPLQGWHTRKNWSSVRTPTLVVGAQLDTIAPVSSHSEAFYNSLPSDLDKAYMELRGASHDVSNTPDTTTAKYSIAWLKRFVDDDLRYEQFLCPAPDDFAISEYRSTCPF
B6: unnamed (protein)
chain: MANPYERGPDPTESSIEAVRGPFAVAQTTVSRLQADGFGGGTIYYPTDTSQGTFGAVAISPGFTAGQESIAWLGPRIASQGFVVITIDTITRLDQPDSRGRQLQAALDHLRTNSVVRNRIDPNRMAVMGHSMGGGGALSAAANNTSLEAAIPLQGWHTRKNWSSVRTPTLVVGAQLDTIAPVSSHSEAFYNSLPSDLDKAYMELRGASHCVSNTPDTTTAKYSIAWLKRFVDDDLRYEQFLCPAPDDFAISEYRSTCPF
B7: unnamed (protein)
chain: MANPYERGPDPTESSIEAVRGPFAVAQTTVSRLQADGFGGGTIYYPTDTSQGTFGAVAISPGFTAGQESIAWLGPRIASQGFVVITIDTITRLDQPDSRGRQLQAALDHLRTNSVVRNRIDPNRMAVMGHSMGGGGALSAAANNTSLEAAIPLQGWHTRKNWSSVRTPTLVVGAQLDTIAPVSSHSEAFYNSLPSDLDKAYMELRGASHFVSNTPDTTTAKYSIAWLKRFVDDDLRYEQFLCPAPDDFAISEYRSTCPF
B8: unnamed (protein)
chain: MANPYERGPDPTESSIEAVRGPFAVAQTTVSRLQADGFGGGTIYYPTDTSQGTFGAVAISPGYTAGQESIAWLGPRIASQGFVVITIDTITRLDQPDSRGRQLQAALDHLRTNSVVRNRIDPNRMAVMGHSMGGGGALSAAANNTSLEAAIPLQGWHTRKNWSSVRTPTLVVGAQLDTIAPVSSHSEAFYNSLPSDLDKAYMELRGASHLVSNTPDTTTAKYSIAWLKRFVDDDLRYEQFLCPAPDDFAISEYRSTCPF
B9: unnamed (protein)
chain: MANPYERGPDPTESSIEAVRGPFAVAQTTVSRLQADGFGGGTIYYPTDTSQGTFGAVAISPGFTAGQESIAWLGPRIASQGFVVITIDTITRLDQPDSRGRQLQAALDHLRTNSVVRNRIDPNRMAVMGHSMGGGGALSAAANNTSLEAAIPLQGWHTRKNWSSVRTPTLVVGAQLDTIAPVSSHSEAFYNSLPSDLDKAYMELRGASHQVSNTPDTTTAKYSIAWLKRFVDDDLRYEQFLCPAPDDFAISEYRSTCPF
B10: unnamed (protein)
chain: MANPYERGPDPTESSIEAVRGPFAVAQTTVSRLQADGFGGGTIYYPTDTSQGTFGAVAISPGFTAGQESIAWLGPRIASQGFVVITIDTITRLDQPDSRGRQLQAALDHLRTNSVVRNRIDPNRMAVMGHSMGGGGALSAAANNTSLEAAIPLQGWHTRKNWSSVRTPTLVVGAQLDTIAPVSSHSEAFYNSLPSDLDKAYMELRGASHTVSNTPDTTTAKYSIAWLKRFVDDDLRYEQFLCPAPDDFAISEYRSTCPF
B11: unnamed (protein)
chain: MANPYERGPDPTESSIEAVRGPFAVAQTTVSRLQADGFGGGTIYYPTDTSQGTFGAVAISPGFTAGQESIAWLGPRIASQGFVVITIDTITRLDQPDSRGRQLQAALDHLRTNSVVRNRIDPNRMAVMGHSMGGGGALSAAANNTSLEAAIPLQGWHTRKNWSSVRTPTLVVGAQLDTIAPVSSHSEAFYNSLPSDLDKAYMELRGASHEVSNTPDTTTAKYSIAWLKRFVDDDLRYEQFLCPAPDDFAISEYRSTCPF
B12: unnamed (protein)
chain: MANPYERGPDPTESSIEAVRGPFAVAQTTVSRLQADGFGGGTIYYPTDTSQGTFGAVAISPGFTAGQESIAWLGPRIASQGFVVITIDTITRLDQPDSRGRQLQAALDHLRTNSVVRNRIDPNRMAVMGHSMGGGGALSAAANNTSLEAAIPLQGWHTRKNWSSVRTPTLVVGAQLDTIAPVSSHSEAFYNSLPSDLDKAYMELRGASHRVSNTPDTTTAKYSIAWLKRFVDDDLRYEQFLCPAPDDFAISEYRSTCPF
B13: unnamed (protein)
chain: MANPYERGPDPTESSIEAVRGPFAVAQTTVSRLQADGFGGGTIYYPTDTSQGTFGAVAISPGFTAGQESIAWLGPRIASQGFVVITIDTITRLDQPDSRGRQLQAALDHLRTNSVVRNRIDPNRMAVMGHSMGGGGALSAAANNTSLEAAIPLQGHHTRKNWSSVRTPTLVVGAQLDTIAPVSSHSEAFYNSLPSDLDKAYMELRGASHLVSNTPDTTTAKYSIAWLKRFVDDDLRYEQFLCPAPDDFAISEYRSTCPF
B14: unnamed (protein)
chain: MANPYERGPDPTESSIEAVRGPFAVAQTTVSRLQADGFGGGTIYYPTDTSQGTFGAVAISPGFTAGQESIAWLGPRIASQGFVVITIDTITRLDQPDSRGRQLQAALDHLRTNSVVRNRIDPNRMAVMGHSMGGGGALSAAANNTSLEAAIPLQGAHTRKNWSSVRTPTLVVGAQLDTIAPVSSHSEAFYNSLPSDLDKAYMELRGASHLVSNTPDTTTAKYSIAWLKRFVDDDLRYEQFLCPAPDDFAISEYRSTCPF
B15: unnamed (protein)
chain: MANPYERGPDPTESSIEAVRGPFAVAQTTVSRLQADGFGGGTIYYPTDTSQGTFGAVAISPGFTAGQESIAWLGPRIASQGFVVITIDTITRLDQPDSRGRQLQAALDHLRTNSVVRNRIDPNRMAVMGHSMGGGGALSAAANNTSLEAAIPLQGWHTRKNWSSVRTPTLVVGAQLDTIAPVSSHSEAFYNSLPSDLDKAYMELRGASHVVSNTPDTTTAKYSIAWLKRFVDDDLRYEQFLCPAPDDFAISEYRSTCPF
B16: unnamed (protein)
chain: MANPYERGPDPTESSIEAVRGPFAVAQTTVSRLQADGFGGGTIYYPTDTSQGTFGAVAISPGFTAGQESIAWLGPRIASQGFVVITIDTITRFDYPDSRGRQLQAALDHLRTNSVVRNRIDPNRMAVMGHSMGGGGALSAAANNTSLEAAIPLQGWHTRKNWSSVRTPTLVVGAQLDTIAPVSSHSEAFYNSLPSDLDKAYMELCGASHLVSNTPDTTTAKYSIAWLKRFVDDDLRYEQFLCPAPDDFAICEYRSTCPF
B17: unnamed (protein)
chain: MANPYERGPDPTESSIEAVRGPFAVAQTTVSRLQADGFGGGTIYYPTDTSQGTFGAVAISPGATAGQESIAWLGPRIASQGFVVITIDTITRLDQPDSRGRQLQAALDHLRTNSVVRNRIDPNRMAVMGHSMGGGGALSAAANNTSLEAAIPLQGWHTRKNWSSVRTPTLVVGAQLDTIAPVSSHSEAFYNSLPSDLDKAYMELRGASHLVSNTPDTTTAKYSIAWLKRFVDDDLRYEQFLCPAPDDFAISEYRSTCPF
B18: unnamed (protein)
chain: MANPYERGPDPTESSIEAVRGPFAVAQTTVSRLQADGFGGGTIYYPTDTSQGTFGAVAISPGFTAGQESIAWLGPRIASQGFVVITIDTITRLDQPDSRGRQLQAALDHLRTNSVVRNRIDPNRMAVMGHSMGGGGALSAAANNTSLEAAIPLQGFHTRKNWSSVRTPTLVVGAQLDTIAPVSSHSEAFYNSLPSDLDKAYMELRGASHLVSNTPDTTTAKYSIAWLKRFVDDDLRYEQFLCPAPDDFAISEYRSTCPF

substrate: gfPET; experiment: Proxy for plastic degradation [Relative activity]; conditions: pH 8

Row | Protein | Proxy for plastic degradation [%]
1 | B1 | 74
2 | B2 | 16
3 | B3 | 54
4 | B4 | 26
5 | B5 | 66
6 | B6 | 8
7 | B7 | 58
8 | B8 | 65
9 | B9 | 94
10 | B10 | 48
11 | B11 | 6
12 | B12 | 95
13 | B13 | 1
14 | B14 | 5
15 | B15 | 61
16 | B16 | 70
17 | B17 | 22
18 | B18 | 8
